Measurements taken from the supplement of paper PMC10724198.
± gives the standard deviation of the averaged measurements.

These sequences were tested on Saccharomyces cerevisiae (assay: protein stability index of tFT-peptide fusion (C-terminal peptide) (PSI (0-1 scale)); higher = more stable (slower turnover)). Details: genetic background: wild type; temperature: 30 C.
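Also: PSI is a weighted mean of sequencing reads over stability bins, variants kept only with over 10 reads, mCherry proximal and sfGFP distal, peptide attached via GGGS linker.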

Sequence | protein stability index
PPPPLSTVPPPP | 0.811 ± 0.019
GLRSKLEKVQRG | 0.726 ± 0.047
KKNKRKLKKKKK | 0.72 ± 0.087
RELKSPRCRTHR | 0.653 ± 0.12
RSYRLRTSRADI | 0.683 ± 0.1
SLSAPPPRSTSP | 0.597 ± 0.021
LALSVRFFSVLF | 0.587 ± 0.036
LEVLGVPQLIRS | 0.534 ± 0.07
PISPLPPPRFLP | 0.677 ± 0.04
VDSLFGSRVLRL | 0.727 ± 0.097
WGVSVVEGGRSG | 0.736 ± 0.093
GCGCVVRVWSGV | 0.6621 ± 0.0013
PPAPPLSSPPPS | 0.662 ± 0.053
MSRPSLARLPAS | 0.711 ± 0.011
LPASLPPPPPPY | 0.756 ± 0.058
APPPSPPPPPFP | 0.67 ± 0.064
VLLARVRRSSDS | 0.649 ± 0.093
SSPLPPPSPLPA | 0.678 ± 0.031
GWPVGSLKTPCR | 0.726 ± 0.046
ISPQEPLVNTTN | 0.665 ± 0.018
EGGKGGLVIVGG | 0.709 ± 0.11
NVWGTGGMCTFV | 0.7058 ± 0.0019
MESAGVGRVVWR | 0.654 ± 0.051
WLTCICSSVAPL | 0.698 ± 0.042
LRRGRLVSSAAF | 0.802 ± 0.077
GQGKWGGGGDER | 0.68276 ± 0.0003

Sequence | protein stability index
SLLPPSPPPSRL | 0.724 ± 0.066
QEWAQYTHSEQP | 0.735 ± 0.026
GSKISIKDKAQV | 0.685 ± 0.07
PLLSPPSPPPPT | 0.713 ± 0.017
PANRGPPTPFSP | 0.729 ± 0.024
NSSEIGQNADTA | 0.672 ± 0.025
PAPSPLPPPPSL | 0.6978 ± 0.0057
KGIDTYVLQRNE | 0.715 ± 0.0095
TGYDERSRFIEI | 0.68 ± 0.1
VGVPAGQRRLAS | 0.718 ± 0.089
CPLPPPRPLLSA | 0.651 ± 0.026
PPPASPLPPASP | 0.667 ± 0.031
LSGSTQLLYFFQ | 0.6651 ± 0.0028
RLKFHRLVMTGY | 0.612 ± 0.031
LPVCVRLSLCDV | 0.6144 ± 0.004
FPLQSFCYFVPI | 0.597 ± 0.0015
ILDSPMWQPVSM | 0.727 ± 0.056
KRKRAVQYLMQP | 0.615 ± 0.042
KKVDLEDQRKER | 0.745 ± 0.008
TREITDAKVGNE | 0.7145 ± 0.0015
RYCESKVFKERE | 0.742 ± 0.049
PRRPAFPPPGLP | 0.705 ± 0.072
LFVCVFRPWLGG | 0.766 ± 0.09
RFIGVVTRLRRC | 0.643 ± 0.042
KRKKKRKQKGKQ | 0.722 ± 0.036
IGYHGRSLGWKR | 0.635 ± 0.082

Sequence | protein stability index
LPRPPPPPPPPP | 0.759 ± 0.042
TPASCHQFGYQH | 0.695 ± 0.026
PLPPPPALLFPP | 0.733 ± 0.054
GVGVHAASGGEN | 0.723 ± 0.009
LFVGSSPPPSPP | 0.643 ± 0.046
PAPPPPFPPSPP | 0.695 ± 0.039
VGWSWTSWTKGD | 0.661 ± 0.021
PPPPRPPFPRAF | 0.698 ± 0.0051
SHSPAPSFPYFP | 0.7367 ± 0.0026
TKKKKKEKGDST | 0.702 ± 0.1
KNSLIKTKESRK | 0.6947 ± 0.0021
TTILCVARHIPH | 0.759 ± 0.089
WMTFKKLQCNRT | 0.682 ± 0.027
PPQPRSHPPHLS | 0.594 ± 0.086
GYVHPSWLWANT | 0.732 ± 0.033
CDFVFEFSCVQV | 0.577 ± 0.025
RGLRIFMSRAWH | 0.75 ± 0.043
PVVFFSYPLPSF | 0.699 ± 0.019
LEQAGFWWPKGL | 0.764 ± 0.0087
RAPPKTTPHPAE | 0.693 ± 0.052
INQEKKLKNNKK | 0.70627 ± 0.0004
SNRSVININIRI | 0.616 ± 0.058
PTRAPVKPDQHP | 0.798 ± 0.072
PPPASRTPSNLP | 0.732 ± 0.046
GCFTLLCFRRIL | 0.511 ± 0.012
GETGGRSQDARI | 0.744 ± 0.088

Sequence | protein stability index
LRRTKWRTLQAP | 0.701 ± 0.048
APAPPPGVPPSR | 0.702 ± 0.002
PSPPPLSPPTPR | 0.667 ± 0.016
LLHWGRWSRGRR | 0.694 ± 0.071
VGRAGMPGSAES | 0.66 ± 0.022
TFFFLGSVFSLA | 0.638 ± 0.043
GIRRSLALSAIS | 0.555 ± 0.017
HRFPPDLYQHGP | 0.645 ± 0.011
GTNARGGPINIG | 0.675 ± 0.0065
LRHRAYPKLFPA | 0.708 ± 0.011
PSPTAPGPSIPP | 0.667 ± 0.049
GALYGARCNFEL | 0.72017 ± 0.00015
GQWCGRLLRSGS | 0.6845 ± 0.0059
NFRTHRHLVARS | 0.762 ± 0.019
PPPVPPPPAHTP | 0.681 ± 0.091
RRSLDQSIQAKC | 0.643 ± 0.055
RWVEGVWGVWCG | 0.757 ± 0.042
SRDIKTDCLRRV | 0.688 ± 0.078
IWPGASLALLTS | 0.606 ± 0.011
QNKTQKSKKKKS | 0.734 ± 0.038
RLPLSSPLRFSL | 0.712 ± 0.06
WSRGGVLGVCCG | 0.536 ± 0.031
AGSLFEVECNGS | 0.746 ± 0.038
EKEGPDRGECGL | 0.682 ± 0.0089
RCTWEATYNLRY | 0.749 ± 0.092
AMLLRCRQGDLI | 0.675 ± 0.032

Sequence | protein stability index
QIGKQAAATGTA | 0.708 ± 0.049
YMGDFRPAFAVT | 0.64 ± 0.046
PLLSPPSPLPPF | 0.724 ± 0.022
VSSCLHDYSAIY | 0.744 ± 0.029
GYKLLIEGNWEV | 0.756 ± 0.025
LTVIRSRDVIGP | 0.641 ± 0.055
PHPPHRLPYPRL | 0.808 ± 0.054
FFFPSPPPPSLV | 0.749 ± 0.05
GLGGGRCFWGVG | 0.686 ± 0.061
KRRSQKKKRIMD | 0.6968 ± 0.0043
SRLPSYVSACSF | 0.671 ± 0.011
RGSQLFWSRGYL | 0.707 ± 0.035
QSRAMFELMGIS | 0.652 ± 0.004
NKNKKKIKHKRK | 0.669 ± 0.051
VGGGGGVSLGGR | 0.655 ± 0.087
GGRVAGSMGVGG | 0.68 ± 0.02
RNYQKAKENMKL | 0.585 ± 0.14
SHSRRRTPSVTP | 0.713 ± 0.083
PPPLSPPPPPRP | 0.6643 ± 0.0031
SLPPRPCPSHLH | 0.786 ± 0.081
MLGLHSDTRRSR | 0.673 ± 0.022
VSSTFGQDTSKR | 0.715 ± 0.024
PAPPPPARPALP | 0.706 ± 0.027
FFVSHLLRFAIK | 0.555 ± 0.0089
LQPRLLSIVPYN | 0.635 ± 0.03
LFGFSPAPVSFG | 0.733 ± 0.073

Sequence | protein stability index
CPDGSGWLARGC | 0.661 ± 0.11
CYCTYHDQDSVS | 0.757 ± 0.032
EAGVGSGGGRCG | 0.673 ± 0.058
APGPPPLPHPPT | 0.717 ± 0.022
PLSRYPSPSLPL | 0.693 ± 0.0076
PRPQTSAHAETG | 0.644 ± 0.022
RVTVWHELTVDC | 0.569 ± 0.0083
AVFSWVTAGQCD | 0.684 ± 0.027
GLFVDIRLHRRT | 0.71 ± 0.017
YLYLKSRDTFLN | 0.7094 ± 0.0013
VIGEWWPVSGQH | 0.718 ± 0.014
RGSSPRAVTVWM | 0.804 ± 0.075
KEENKKKKKKRI | 0.755 ± 0.081
TSLALAFTFAIP | 0.703 ± 0.051
APPPPPSPRRPL | 0.708 ± 0.013
RTRSVPWEPRYF | 0.687 ± 0.03
FPSASPPFLPTP | 0.705 ± 0.037
PPPHPPTPLPPT | 0.701 ± 0.018
PTLPGEQPRSWQ | 0.6701 ± 0.0049
GVDGVLGGWGCG | 0.786 ± 0.1
SPRSPACPTPDR | 0.734 ± 0.011
EGGWRLVWGRGG | 0.7222 ± 0.0024
CTHYFSNSCLLR | 0.604 ± 0.063
CAGPLLIPPLSL | 0.6895 ± 0.0042
IESFFLFSFSFP | 0.762 ± 0.31
PSPLLPAPRRPP | 0.684 ± 0.085

Sequence | protein stability index
IGEAWERGQEAK | 0.679 ± 0.027
EKQKIIRSGCES | 0.746 ± 0.16
CYLKGSGSWISG | 0.718 ± 0.031
YFWTHLISIPDV | 0.676 ± 0.062
INWIHERNDKSI | 0.734 ± 0.027
ASPPAYGPPPPP | 0.6806 ± 0.0035
SPGRSSTLPPVF | 0.7101 ± 0.00072
YLPDPVVSLAHS | 0.656 ± 0.063
TSVVLPGPAVSR | 0.732 ± 0.049
RSRCYSNIRIFI | 0.589 ± 0.048
GAGVEIGKSRYR | 0.716 ± 0.074
PRDSPPPPPPPP | 0.699 ± 0.027
GSSCHFPARCPV | 0.659 ± 0.018
RYTKYKSYPYDI | 0.6897 ± 0.0023
EEQKAKQKQEYG | 0.639 ± 0.077
LVCKRQGQANFI | 0.689 ± 0.06
KQKTSRGTGQSL | 0.683 ± 0.1
RRRSLLLTYSYV | 0.541 ± 0.055
PTPGSPPPPLHP | 0.706 ± 0.02
PRLHRRPAYTFI | 0.606 ± 0.022
SPVRPPLSSLYS | 0.705 ± 0.04
PPPPSSPPHLPF | 0.651 ± 0.018
PTAESFNVRKRD | 0.723 ± 0.086
RPGGVRVVSIQL | 0.672 ± 0.06
VFSGGTVRWVGG | 0.702 ± 0.023
ALCGWYMGLFHL | 0.646 ± 0.0042

Sequence | protein stability index
PSGSNPPRTIPT | 0.713 ± 0.017
PPPPPSAPAPLH | 0.6963 ± 0.0021
EACVAAMTPKSL | 0.657 ± 0.0083
IHQQEVKSRICT | 0.592 ± 0.031
ARESGFGGVLEE | 0.674 ± 0.028
GERWGGGRAAET | 0.714 ± 0.076
GPRSLVEITITD | 0.669 ± 0.029
SPRPTRPALLPP | 0.708 ± 0.033
TRDTLNLMYKRL | 0.703 ± 0.046
GGGMRLVKRACY | 0.64 ± 0.031
LMAGPRLCSPLR | 0.634 ± 0.033
PIERISNSGKRP | 0.6928 ± 0.0017
DKRPTLYSLSLS | 0.621 ± 0.032
ISVDNTKFLFRS | 0.687 ± 0.023
GEYLWVHRIISE | 0.679 ± 0.086
KKEQKKKNKNDR | 0.669 ± 0.025
KMGKIQKVKGIK | 0.731 ± 0.012
GPFPMRRTFRFA | 0.667 ± 0.056
IGVNEDSAIVCM | 0.562 ± 0.024
SAKGGVLLIGLF | 0.603 ± 0.2
